Measurements taken from PMC4240464 (The Febs Journal, 2013).
Where two headings read alike, the source gives them in different places.

T1: Evasin-4 (untagged recombinant) (Rhipicephalus sanguineus, UniProt P0C8E9 24-127, appears to be highly glycosylated (six putative N-glycosylation sites))
T1 sequence: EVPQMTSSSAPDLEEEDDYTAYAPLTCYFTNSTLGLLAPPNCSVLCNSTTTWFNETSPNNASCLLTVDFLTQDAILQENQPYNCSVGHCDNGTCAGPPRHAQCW

T2: CCL25 (human, UniProt O15444 24-150)
T2 sequence: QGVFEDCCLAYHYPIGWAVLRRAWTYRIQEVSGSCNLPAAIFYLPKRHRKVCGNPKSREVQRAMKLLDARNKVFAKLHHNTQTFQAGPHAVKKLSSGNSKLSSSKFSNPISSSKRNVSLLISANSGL

T3: CCL21 (human, UniProt O00585 24-134)
T3 sequence: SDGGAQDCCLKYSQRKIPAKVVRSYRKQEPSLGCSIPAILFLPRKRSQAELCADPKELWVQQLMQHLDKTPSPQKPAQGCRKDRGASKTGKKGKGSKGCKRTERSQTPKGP

B1: 6His–Evasin-4 (natural protein)
chain: EVPQMTSSSAPDLEEEDDYTAYAPLTCYFTNSTLGLLAPPNCSVLCNSTTTWFNETSPNNASCLLTVDFLTQDAILQENQPYNCSVGHCDNGTCAGPPRHAQCW

What was measured:
Assay in all cases: SPR
6His–Evasin-4 [1] = target: B1
6His–Evasin-4 [2] = target: B1; remark: listed apart in the source
[3] = target: T1, Evasin-4 (untagged recombinant)
CCL25 = target: T2, CCL25
CCL21 = target: T3, CCL21

Binder	Kd (6His–Evasin-4 [1])	koff (6His–Evasin-4 [1])	kon (6His–Evasin-4 [1])	Kd (6His–Evasin-4 [2])	Kd [3]	Kd (CCL25)	koff (CCL25)	kon (CCL25)	Kd (CCL21)	koff (CCL21)	kon (CCL21)
CCL11 (ligand) not shown	0.34 nM	0.00435 s⁻¹	1.29e+07 M⁻¹ s⁻¹	0.069 nM	128 nM						
CCL5 E26A (ligand) SPYSSDTTPCCFAYIARPLPRAHIKAYFYTSGKCSNPAVVFVTRKNRQVCANPEKKWVREYINSLEMS	0.09 nM	0.00223 s⁻¹	2.6e+07 M⁻¹ s⁻¹	0.002 nM	194 nM						
CCL19 (ligand) GTNDAEDCCLSVTQKPIPGYIVRNFHYLLIKDGCRVPAVVFTTLRGRQLCAPPDQPWVERIIQRLQRTSAKMKRRSS	0.14 nM	0.00035 s⁻¹	2.57e+06 M⁻¹ s⁻¹								
B1						69.6 nM	0.00054 s⁻¹	8000 M⁻¹ s⁻¹	0.01 nM	8e-05 s⁻¹	1.1e+07 M⁻¹ s⁻¹
CCL18 (ligand) AQVGTNKELCCLVYTSWQIPQKFIVDYSETSPQCPKPGVILLTKRGRQICADPNKKWVQKYISDLKLNA	0.03 nM	0.00053 s⁻¹	1.96e+07 M⁻¹ s⁻¹	0.198 nM							
CCL26 (ligand) TRGSDISKTCCFQYSHKPLPWTWVRSYEFTSNSCSQRAVIFTTKRGKKVCTHPRKKWVQKYISLLKTPKQL	0.88 nM	0.00015 s⁻¹	170000 M⁻¹ s⁻¹	11.4 nM							
CCL22 (ligand) GPYGANMEDSVCCRDYVRYRLPLRVVKHFYWTSDSCPRPGVVLLTFRDKEICADPRVPWVKMILNKLSQ	0.43 nM	0.0038 s⁻¹	8.9e+06 M⁻¹ s⁻¹								
CCL7 (ligand) not shown	0.7 nM	0.00988 s⁻¹	1.41e+07 M⁻¹ s⁻¹	0.045 nM							
CCL23 (ligand) RVTKDAETEFMMSKLPLENPVLLDRFHATSADCCISYTPRSIPCSLLESYFETNSECSKPGVIFLTKKGRRFCANPSDKQVQVCMRMLKLDTRIKTRKN	4.43 nM	3e-05 s⁻¹	6000 M⁻¹ s⁻¹	10.8 nM	14.1 nM						
CCL17 (ligand) ARGTNVGRECCLEYFKGAIPLRKLKTWYQTSEDCSRDAIVFVTVQGRAICSDPNNKRVKNAVKYLQSLERS	0.61 nM	0.0107 s⁻¹	1.76e+07 M⁻¹ s⁻¹		126 nM						
CCL3 (ligand) SLAADTPTACCFSYTSRQIPQNFIADYFETSSQCSKPGVIFLTKRSRQVCADPSEEWVQKYVSDLELSA	0.06 nM	0.00089 s⁻¹	1.38e+07 M⁻¹ s⁻¹	0.393 nM	33.1 nM						
CCL14 (ligand) TKTESSSRGPYHPSECCFTYTTYKIPRQRIMDYYETNSQCSKPGIVFITKRGHSVCTNPSDKWVQDYIKDMKEN	0.14 nM	0.00148 s⁻¹	1.04e+07 M⁻¹ s⁻¹								
CCL8 (ligand) QPDSVSIPITCCFNVINRKIPIQRLESYTRITNIQCPKEAVIFKTKRGKEVCADPKERWVRDSMKHLDQIFQNLKP	0.25 nM	0.00176 s⁻¹	7.11e+06 M⁻¹ s⁻¹	0.22 nM							
CCL24 (ligand) VVIPSPCCMFFVSKRIPENRVVSYQLSSRSTCLKAGVIFTTKKGQQFCGDPKQEWVQRYMKNLDAKQKKASPRARAVAVKGPVQRYPGNQTTC	0.41 nM	0.0125 s⁻¹	3.05e+07 M⁻¹ s⁻¹	142 nM							
CCL16 (ligand) QPKVPEWVNTPSTCCLKYYEKVLPRRLVVGYRKALNCHLPAIIFVTKRNREVCTNPNDDWVQEYIKDPNLPLLPTRNLSTVKIITAKNGQPQLLNSQ	0.26 nM	0.00306 s⁻¹	1.2e+07 M⁻¹ s⁻¹								
CCL15 (ligand) QFTNDAETELMMSKLPLENPVVLNSFHFAADCCTSYISQSIPCSLMKSYFETSSECSKPGVIFLTKKGRQVCAKPSGPGVQDCMKKLKPYSI	2.31 nM	0.0936 s⁻¹	4.05e+07 M⁻¹ s⁻¹	0.199 nM	132 nM						
CCL1 (ligand) KSMQVPFSRCCFSFAEQEIPLRAILCYRNTSSICSNEGLIFKLKRGKEACALDTVGWVQRHRKMLRHCPSKRK	0.2 nM	0.00326 s⁻¹	1.66e+07 M⁻¹ s⁻¹	1.81 nM	112 nM						
